# In patent publication US20200339959A1 (Memorial Sloan Kettering, published 2020):
# T1: Flag-tagged human IRF3 (human, UniProt Q14653 1-427)
# T1 construct: also called transcription factor IRF3; not shown: Flag tag
# T1 sequence: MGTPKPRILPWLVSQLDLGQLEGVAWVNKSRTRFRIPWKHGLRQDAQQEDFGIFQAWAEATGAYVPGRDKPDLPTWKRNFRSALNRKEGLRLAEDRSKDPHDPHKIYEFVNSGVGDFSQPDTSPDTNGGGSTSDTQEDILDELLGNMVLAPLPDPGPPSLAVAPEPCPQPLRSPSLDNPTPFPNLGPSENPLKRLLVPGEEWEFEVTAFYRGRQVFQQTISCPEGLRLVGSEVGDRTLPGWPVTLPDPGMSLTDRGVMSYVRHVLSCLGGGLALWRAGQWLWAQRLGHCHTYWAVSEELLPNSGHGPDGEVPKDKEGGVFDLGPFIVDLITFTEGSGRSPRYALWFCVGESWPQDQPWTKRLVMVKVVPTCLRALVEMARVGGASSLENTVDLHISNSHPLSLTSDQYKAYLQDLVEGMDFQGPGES
# T2: Flag-tagged human STAT1 (human, UniProt P42224 1-750)
# T2 construct: also called flag-STAT1; not shown: Flag tag
# T2 sequence: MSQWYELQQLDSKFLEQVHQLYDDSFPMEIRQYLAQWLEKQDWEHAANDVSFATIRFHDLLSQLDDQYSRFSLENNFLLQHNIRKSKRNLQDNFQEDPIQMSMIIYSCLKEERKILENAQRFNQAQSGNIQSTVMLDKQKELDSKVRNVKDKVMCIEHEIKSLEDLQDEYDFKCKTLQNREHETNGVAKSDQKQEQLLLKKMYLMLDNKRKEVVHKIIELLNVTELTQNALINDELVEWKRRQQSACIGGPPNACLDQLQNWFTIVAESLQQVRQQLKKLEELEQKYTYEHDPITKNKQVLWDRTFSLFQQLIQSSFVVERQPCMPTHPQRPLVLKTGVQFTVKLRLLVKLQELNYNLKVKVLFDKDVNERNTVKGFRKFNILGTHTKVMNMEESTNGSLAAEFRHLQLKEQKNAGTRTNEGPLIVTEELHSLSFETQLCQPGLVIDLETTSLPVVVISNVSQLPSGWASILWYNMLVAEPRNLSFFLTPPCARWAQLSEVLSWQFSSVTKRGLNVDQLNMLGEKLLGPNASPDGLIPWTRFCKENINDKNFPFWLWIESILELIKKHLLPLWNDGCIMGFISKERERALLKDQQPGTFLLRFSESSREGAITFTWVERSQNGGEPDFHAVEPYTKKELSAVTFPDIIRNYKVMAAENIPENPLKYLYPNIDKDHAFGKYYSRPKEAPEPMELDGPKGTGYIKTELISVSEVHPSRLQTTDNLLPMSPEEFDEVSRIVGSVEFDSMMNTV
# B1: vaccinia virus C7 protein (other)
# chain: MGIQHEFDIIINGDIALRNLQLHKGDNYGCKLKIISNDYKKLKFRFIIRPDWSEIDEVKGLTVFANNYAVKVNKVDDTFYYVIYEAVIHLYNKKTEILIYSDDENELFKHYYPYISLNMISKKYKVKEENYSSPYIEHPLIPYRDYESMD
# notes: also called vaccinia C7; C7L gene product
# B2: HA-tagged vaccinia C7 (other)
# chain: B1 chain
# notes: also called C7-HA; HA-tagged C7
# What was measured:
# Flag-tagged human IRF3 = target: T1, Flag-tagged human IRF3; experiment: co-immunoprecipitation from HEK293T lysates: IP anti-C7, blot anti-Flag
# Flag-tagged human STAT1 = target: T2, Flag-tagged human STAT1; experiment: co-immunoprecipitation from HEK293T lysates: IP anti-HA, blot anti-Flag
# Flag-tagged human STAT2 = target: T3, Flag-tagged human STAT2 (human, UniProt P52630 1-851); experiment: as above
# T3 construct: also called flag-STAT2; not shown: Flag tag
Binder,binding result (Flag-tagged human IRF3),binding result (Flag-tagged human STAT1),binding result (Flag-tagged human STAT2)
B1,binds,,
B2,,no binding,binds
